Experiment [1] addresses T1, human insulin-like growth factor binding protein 4 (IBP4) (human, UniProt P22692 22-258).
T1 construct: also called IBP4 protein; IGFBP4
T1 sequence: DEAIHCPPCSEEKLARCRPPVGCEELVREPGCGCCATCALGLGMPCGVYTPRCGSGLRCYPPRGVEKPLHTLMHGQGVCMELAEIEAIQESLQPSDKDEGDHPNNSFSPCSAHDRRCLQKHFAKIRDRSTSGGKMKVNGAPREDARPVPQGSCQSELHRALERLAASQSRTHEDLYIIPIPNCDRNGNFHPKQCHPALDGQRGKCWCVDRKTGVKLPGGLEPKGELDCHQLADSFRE
In words: AC-MS, mAb on M-PVA beads, pooled pregnant serum. The source says: (§1) Anti-IBP4 antibody evaluation and selection. A total of 8 hybridoma clones (1H9.B6, 5C11.A7, 7G11.H4, 3D4.E9, 1G3.A3, 8G4.G11, 5F10.B2, and 3D8.A11) were produced according to the “additional production of anti-IBP4 antibodies” methods disclosed in Example 1 and screened by AC-MS, shown in Table 10 below. Monoclonal antibodies from these clones purified by protein-G affinity chromatography were covalently coupled to M-PVA magnetic beads and used in AC-MS experiments using pooled pregnant serum. The 5B3.G9 anti-IBP4 antibody clone was included in this analysis for comparison to the performance of the additional IBP4 antibodies, as shown and italicized in Table 10 below. Table 10 includes a summary of the additional antibodies Response Ratios and shared epitope binding results as determined by the competitive binding assays of Example 3.

Experiment [2] has as its target T1, human insulin-like growth factor …. Put plainly: AC-MS, mAb on M-PVA beads, pooled pregnant serum, peptide ….
Source text: as §1

For experiment [3] the target is unchanged. Put plainly: AC-MS, mAb on M-PVA beads, QC2 serum, round 3 (beads reused).
For experiment [4] the target is unchanged. In words: AC-MS, 10 ul QC2 serum, M-PVA beads coupled at 25 ug/ml mAb. The source says: (§2) AC-MS performance at reduced IBP4 antibody coupling density. IBP4 antibodies were coupled to M-PVA beads at concentrations of […] in the coupling reaction to test the performance of M-PVA beads with reduced density of coupled antibody. Comparison of the IBP4 response ratios obtained in AC-MS experiments with M-PVA beads with a low density of coupled mAb should reveal differences in the apparent affinity of the antibodies to IBP4 protein.
(§3) M-PVA beads coupled to IBP4 mAbs 1H9.B6, 5C11.A7, 7G11.H4 or 5B3.G9 at each concentration were used in AC-MS experiments with 10 μl of QC2 serum.

The target is the same in experiment [5]. In words: AC-MS, mAb on M-PVA beads, QC2 serum, round 1.
Experiment [6] has the same target. Put plainly: AC-MS, mAb on M-PVA beads, QC2 serum, round 2 (beads reused).
For experiment [7] the target is unchanged. In words: SPR, format and IBP4 form not stated. For orientation: Surface plasmon resonance follows binding to a sensor surface in real time, without labels.
Experiment [8] has the same target. In words: AC-MS, 10 ul QC2 serum, M-PVA beads coupled at 100 ug/ml mAb.
Source text: as §2, §3

For experiment [9] the target is unchanged. In words: AC-MS, 10 ul QC2 serum, M-PVA beads at reduced mAb coupling density.
Source text: as §2, §3

The target is the same in experiment [10]. Put plainly: AC-MS, 10 ul QC2 serum, M-PVA beads coupled at 400 ug/ml mAb.
Source text: as §2, §3

Experiment [11] deals with C4 Pos Control #4. Put plainly: ECLIA, single peptide competes with SHBG for the antibody.
Experiment [12] deals with T2, anti-SHBG antibody clone variant 4G10.F8.
T2 construct: Mouse monoclonal; variant form expressed from a standard backbone in CHO cells; also called SHBG (4G10.F8) Anti SHBG v1; SHBG #6
T2 sequence (heavy, as listed by the source, chain 1 of 2): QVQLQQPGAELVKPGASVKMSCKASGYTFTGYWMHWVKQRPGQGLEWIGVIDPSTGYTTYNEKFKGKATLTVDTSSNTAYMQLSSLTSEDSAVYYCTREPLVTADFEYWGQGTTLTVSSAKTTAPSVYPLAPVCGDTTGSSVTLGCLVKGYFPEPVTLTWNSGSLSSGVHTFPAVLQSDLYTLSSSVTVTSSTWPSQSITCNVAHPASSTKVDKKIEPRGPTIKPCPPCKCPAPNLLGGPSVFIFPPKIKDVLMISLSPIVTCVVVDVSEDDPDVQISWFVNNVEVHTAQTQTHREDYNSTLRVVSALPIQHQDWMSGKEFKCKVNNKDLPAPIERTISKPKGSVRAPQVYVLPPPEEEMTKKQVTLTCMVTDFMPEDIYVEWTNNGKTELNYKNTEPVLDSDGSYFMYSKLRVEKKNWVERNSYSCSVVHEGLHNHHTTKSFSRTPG
T2 sequence (light, as listed by the source, chain 2 of 2): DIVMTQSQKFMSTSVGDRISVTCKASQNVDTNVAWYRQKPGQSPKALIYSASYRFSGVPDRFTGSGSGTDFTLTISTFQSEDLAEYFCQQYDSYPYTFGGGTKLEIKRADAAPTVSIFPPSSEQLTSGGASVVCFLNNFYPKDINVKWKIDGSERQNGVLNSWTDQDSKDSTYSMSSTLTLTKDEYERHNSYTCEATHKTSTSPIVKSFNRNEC
The description is as above.

The target of experiment [13] is T3, anti-SHBG antibody clone variant 13C9.E5.
T3 construct: Mouse monoclonal; variant form; also called SHBG (13C9.E5) Anti SHBG v2; SHBG #16
T3 sequence (VH, as listed by the source): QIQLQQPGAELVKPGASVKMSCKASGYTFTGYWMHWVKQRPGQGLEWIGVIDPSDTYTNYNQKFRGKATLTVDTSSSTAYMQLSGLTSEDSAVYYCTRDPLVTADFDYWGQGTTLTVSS
The description is as above.

B1: anti-IBP4 antibody 1H9.B6 (antibody, mouse IgG1, kappa, V domains shown)
VH: EVQLQQSGPELVKPGASVKISCKTSGYTFTDYYMNWVKQSHGKSLEWIGDINPNNGGAGYNQKFKGKATLTVDKSSSTAYMELRSLTSEDSAVYYCARWGWDRYFDYWGQGTTLTVSS
VL: DIVMTQSQKFMSTSVGDRVSVTCKASQNVGIDVAWYQQKPGQSPKALIYSASYRSSGVPDRFTGSGSGTDFTLTINNVQSEDLAEYFCQQYNSYPLAFGSGTKLEIKR
notes: Mouse hybridoma mAb raised against FL IBP4; also called IBP4-1H9.B6
In general, Kd refers to the constant that tells how readily two partners part at equilibrium. For orientation: koff means a measure of how fast the partners let go of each other. By kon is commonly meant the second-order rate constant of association. On to B1, for which the “ave IBP4 AC-MS RR” value in experiment [1] was 0.588. For the same molecule, the “Response Ratio” value in experiment [2] came out at 0.588. In addition, the “ave RR” value in [3] came to 0.62; in experiment [4] it was 0.479; in [5], 0.602; in experiment [6] it was 0.607; in experiment [8] it was 0.562; in experiment [10], 0.586. The Kd in experiment [7] is 1.5 nM. The molecule further yielded a koff in experiment [7] of 0.0009 s⁻¹. The molecule also gave an on-rate constant (kon) in experiment [7] of 600000 M⁻¹ s⁻¹. The t1/2 in experiment [7] was determined as 12.8 min. For the same molecule, the “percentage of the IBP4 RR at 25 relative to 400 coupling density” value in experiment [9] stood at 82%.

B2: anti-IBP4 antibody 5C11.A7 (antibody, mouse IgG1, kappa, V domains shown)
VH: QVQLQQSGAELVRPGASVTLSCKASGYTFTDYEMHWVRQTPVHGLEWIGAIDTETGGPAYNQKFKGKAILTADKSSSTAYMELRSLTSEDSAVYFCTRARGSRSVYYFDNWGQGTTLTVSS
VL: DIVMTQSQKFMSTSVGDRVSVTCKASQNVGTNVAWYQQKPGHSPKVLIYSASYRHSGVPDRFTGSGSGTDFTLTIGNVQSEDLADYFCQQYDTYPLTFGSGTKLEIKR
notes: Mouse hybridoma mAb raised against FL IBP4; also called IBP4-5C11.A7
In the case of B2, the “ave IBP4 AC-MS RR” value in experiment [1] worked out at 0.548. In addition, in experiment [2], the “Response Ratio” value amounted to 0.548. In addition, the “ave RR” value was 0.619 in experiment [3]; 0.47 in experiment [4]; 0.651 in experiment [5]; 0.609 in [6]; 0.567 in experiment [8]; 0.595 in experiment [10]. Besides, the Kd in experiment [7] stood at 1.6 nM. The same molecule registered an off-rate (koff) in [7] of 0.00074 s⁻¹. The molecule further had an on-rate constant (kon) in experiment [7] of 450000 M⁻¹ s⁻¹. The same molecule showed a t1/2 in [7] of 15.6 min. For the same molecule, the “percentage of the IBP4 RR at 25 relative to 400 coupling density” value in experiment [9] is 79%.

B3: anti-IBP4 antibody 7G11.H4 (antibody, mouse IgG1, kappa, V domains shown)
VH: QVQLQQSGAELVRPGASVTLSCKASGYTFTDYEMHWVRQTPVHGLEWIGAIDTETGGPAYNQKFKGKAILTADKSSSTAYMELRSLTSEDSAVYFCTRARGSRSVYYFDNWGQGTTLTVSS
VL: DIVMTQSQKFMSTSVGDRVSVTCKASQNVDTNIAWYQQKPGHSPKALIYSASYRYSGVPDRFTGSGSGTDFTLTIGNVQSEDLADYFCQQYDTYPLTFGSGTKLEIKR
notes: Mouse hybridoma mAb raised against FL IBP4; also called IBP4-7G11.H4
Take B3: the “ave IBP4 AC-MS RR” value in experiment [1] amounted to 0.525. Further, the “Response Ratio” value in experiment [2] was determined as 0.525. In addition, the “ave RR” value in experiment [3] was 0.547; in [4] it was 0.404; in experiment [5], 0.598; in [6] it was 0.56; in experiment [8], 0.492; in experiment [10] it was 0.538. Also, in experiment [7], the equilibrium dissociation constant (Kd) amounted to 2.8 nM. This molecule also came in with a koff in experiment [7] of 0.00102 s⁻¹. Moreover, in [7], the kon is 370000 M⁻¹ s⁻¹. In experiment [7], the t1/2 came out at 11.3 min. For the same molecule, the “percentage of the IBP4 RR at 25 relative to 400 coupling density” value in experiment [9] amounted to 75%.

B4: anti-IBP4 antibody 5B3.G9 (antibody, mouse IgG1, kappa)
heavy: EVQLQQSGPELVKPGASAKISCKASGYTFTDYYMNWVKQSHGKSLEWIGDINPNNGGSAYNQKFKGKATLTVDKSSSTAYMELRSLTSEDSAVYYCARWDGGFDYWGQGTTLTVSSAKTTPPSVYPLAPGSAAQTNSMVTLGCLVKGYFPEPVTVTWNSGSLSSGVHTFPAVLQSDLYTLSSSVTVPSSTWPSQTVTCNVAHPASSTKVDKKIVPRDCGCKPCICTVPEVSSVFIFPPKPKDVLTITLTPKVTCVVVDISKDDPEVQFSWFVDDVEVHTAQTKPREEQINSTFRSVSELPIMHQDWLNGKEFKCRVNSAAFPAPIEKTISKTKGRPKAPQVYTIPPPKEQMAKDKVSLTCMITNFFPEDITVEWQWNGQPAENYKNTQPIMDTDGSYFVYSKLNVQKSNWEAGNTFTCSVLHEGLHNHHTEKSLSHSPGK
light: DIVMTQSQKFMSTSVRDRVSVTCKASQNVGTNVAWYQQKPGQSPKALIYSASYRYSGVPDRFTGSGSGTAFTLTISNVQSEDLAEYFCQQYNIYPLTFGAGTKLELKRADAAPTVSIFPPSSEQLTSGGASVVCFLNNFYPRDINVKWKIDGSERQNGVLNSWTDQDSKDSTYSMSSTLTLTKDEYERHNSYTCEATHKTSTSPIVKSFNRNECK
For B4, the “ave IBP4 AC-MS RR” value in experiment [1] was 0.482. For the same molecule, in [2], the “Response Ratio” value was 0.482. The “ave RR” value worked out at 0.462 in experiment [3]; 0.231 in experiment [4]; 0.533 in experiment [5]; 0.534 in experiment [6]; 0.449 in [8]; 0.47 in experiment [10]. For the same molecule, binding in experiment [7] was characterised by a dissociation constant (Kd) of 10 nM. Also, in experiment [7], the koff was determined as 0.0021 s⁻¹. In experiment [7], this molecule had a kon of 200000 M⁻¹ s⁻¹. This molecule showed a t1/2 in [7] of 5.5 min. Also, the “percentage of the IBP4 RR at 25 relative to 400 coupling density” value in experiment [9] amounted to 49%.

B5: 1 (peptide)
peptide: LRPVLPTQSAHDPP
notes: SHBG peptide of pool 1+2+3; also called peptide 1; Individual Peptide 1
As for B5, the figures for the “% Unblocked Signal at 0.07 uMolar” value in experiment [11], in experiment [12] and in experiment [13] were 93.3%, 95.8% and 93.4%, respectively. Moreover, the “% Unblocked Signal at 0.27 uMolar” value was found to be 77.1% in experiment [11], 83% in experiment [12] and 89.6% in experiment [13]. Besides, the “% Unblocked Signal at 1.08 uMolar” value stood at 66.3% in [11], 53.2% in experiment [12] and 86.8% in experiment [13].

The record behind these values is patent US20250101096A1 (SERA PROGNOSTICS, published 2025).
